From PMC12416549 (2024)

T1: TNFR1 (Homo sapiens, UniProt P19438)
T1 chain: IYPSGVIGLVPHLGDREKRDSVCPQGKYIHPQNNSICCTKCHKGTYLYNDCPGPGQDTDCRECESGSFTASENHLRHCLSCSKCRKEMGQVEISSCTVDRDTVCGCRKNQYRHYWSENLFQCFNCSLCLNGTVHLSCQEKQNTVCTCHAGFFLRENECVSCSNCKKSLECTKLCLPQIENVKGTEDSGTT


Biological target: T1, TNFR1
Test: yeast display SC50

Binder	apparent Kd (screen) [nM]
L26C (designed binder) MTLQELLREEALRRAEAEAFRYALECLAEKFPEQKEYLLDLAEEIESQIRSLSGVDVEDVRKFLDKEWAWVKELLAEHPAELAEVEAARAARLAELRAEVEAKVAA	0.49
E36W (designed binder) MTLQELLREEALRRAEAEAFRYALELLAEKFPEQKWYLLDLAEEIESQIRSLSGVDVEDVRKFLDKEWAWVKELLAEHPAELAEVEAARAARLAELRAEVEAKVAA	0.539
L38I (designed binder) MTLQELLREEALRRAEAEAFRYALELLAEKFPEQKEYILDLAEEIESQIRSLSGVDVEDVRKFLDKEWAWVKELLAEHPAELAEVEAARAARLAELRAEVEAKVAA	0.405
K30N (designed binder) MTLQELLREEALRRAEAEAFRYALELLAENFPEQKEYLLDLAEEIESQIRSLSGVDVEDVRKFLDKEWAWVKELLAEHPAELAEVEAARAARLAELRAEVEAKVAA	0.539
I49N (designed binder) MTLQELLREEALRRAEAEAFRYALELLAEKFPEQKEYLLDLAEEIESQNRSLSGVDVEDVRKFLDKEWAWVKELLAEHPAELAEVEAARAARLAELRAEVEAKVAA	2.25
K62I (designed binder) MTLQELLREEALRRAEAEAFRYALELLAEKFPEQKEYLLDLAEEIESQIRSLSGVDVEDVRIFLDKEWAWVKELLAEHPAELAEVEAARAARLAELRAEVEAKVAA	0.49
E10F (designed binder) MTLQELLREFALRRAEAEAFRYALELLAEKFPEQKEYLLDLAEEIESQIRSLSGVDVEDVRKFLDKEWAWVKELLAEHPAELAEVEAARAARLAELRAEVEAKVAA	1.27
R97Q (designed binder) MTLQELLREEALRRAEAEAFRYALELLAEKFPEQKEYLLDLAEEIESQIRSLSGVDVEDVRKFLDKEWAWVKELLAEHPAELAEVEAARAARLAELQAEVEAKVAA	0.653
Q4P (designed binder) MTLPELLREEALRRAEAEAFRYALELLAEKFPEQKEYLLDLAEEIESQIRSLSGVDVEDVRKFLDKEWAWVKELLAEHPAELAEVEAARAARLAELRAEVEAKVAA	3.3
E84C (designed binder) MTLQELLREEALRRAEAEAFRYALELLAEKFPEQKEYLLDLAEEIESQIRSLSGVDVEDVRKFLDKEWAWVKELLAEHPAELACVEAARAARLAELRAEVEAKVAA	0.539
E33T (designed binder) MTLQELLREEALRRAEAEAFRYALELLAEKFPTQKEYLLDLAEEIESQIRSLSGVDVEDVRKFLDKEWAWVKELLAEHPAELAEVEAARAARLAELRAEVEAKVAA	0.405
Y37E (designed binder) MTLQELLREEALRRAEAEAFRYALELLAEKFPEQKEELLDLAEEIESQIRSLSGVDVEDVRKFLDKEWAWVKELLAEHPAELAEVEAARAARLAELRAEVEAKVAA	7.78
A80P (designed binder) MTLQELLREEALRRAEAEAFRYALELLAEKFPEQKEYLLDLAEEIESQIRSLSGVDVEDVRKFLDKEWAWVKELLAEHPPELAEVEAARAARLAELRAEVEAKVAA	0.446
A91Y (designed binder) MTLQELLREEALRRAEAEAFRYALELLAEKFPEQKEYLLDLAEEIESQIRSLSGVDVEDVRKFLDKEWAWVKELLAEHPAELAEVEAARAYRLAELRAEVEAKVAA	0.653
A98S (designed binder) MTLQELLREEALRRAEAEAFRYALELLAEKFPEQKEYLLDLAEEIESQIRSLSGVDVEDVRKFLDKEWAWVKELLAEHPAELAEVEAARAARLAELRSEVEAKVAA	0.653
L27W (designed binder) MTLQELLREEALRRAEAEAFRYALELWAEKFPEQKEYLLDLAEEIESQIRSLSGVDVEDVRKFLDKEWAWVKELLAEHPAELAEVEAARAARLAELRAEVEAKVAA	0.956
K72G (designed binder) MTLQELLREEALRRAEAEAFRYALELLAEKFPEQKEYLLDLAEEIESQIRSLSGVDVEDVRKFLDKEWAWVGELLAEHPAELAEVEAARAARLAELRAEVEAKVAA	0.653
E73F (designed binder) MTLQELLREEALRRAEAEAFRYALELLAEKFPEQKEYLLDLAEEIESQIRSLSGVDVEDVRKFLDKEWAWVKFLLAEHPAELAEVEAARAARLAELRAEVEAKVAA	0.653
E25C (designed binder) MTLQELLREEALRRAEAEAFRYALCLLAEKFPEQKEYLLDLAEEIESQIRSLSGVDVEDVRKFLDKEWAWVKELLAEHPAELAEVEAARAARLAELRAEVEAKVAA	0.49
M1Y (designed binder) YTLQELLREEALRRAEAEAFRYALELLAEKFPEQKEYLLDLAEEIESQIRSLSGVDVEDVRKFLDKEWAWVKELLAEHPAELAEVEAARAARLAELRAEVEAKVAA	0.593
L38V (designed binder) MTLQELLREEALRRAEAEAFRYALELLAEKFPEQKEYVLDLAEEIESQIRSLSGVDVEDVRKFLDKEWAWVKELLAEHPAELAEVEAARAARLAELRAEVEAKVAA	0.172
S53F (designed binder) MTLQELLREEALRRAEAEAFRYALELLAEKFPEQKEYLLDLAEEIESQIRSLFGVDVEDVRKFLDKEWAWVKELLAEHPAELAEVEAARAARLAELRAEVEAKVAA	0.956
L27F (designed binder) MTLQELLREEALRRAEAEAFRYALELFAEKFPEQKEYLLDLAEEIESQIRSLSGVDVEDVRKFLDKEWAWVKELLAEHPAELAEVEAARAARLAELRAEVEAKVAA	0.446
E16Q (designed binder) MTLQELLREEALRRAQAEAFRYALELLAEKFPEQKEYLLDLAEEIESQIRSLSGVDVEDVRKFLDKEWAWVKELLAEHPAELAEVEAARAARLAELRAEVEAKVAA	0.653
Q48C (designed binder) MTLQELLREEALRRAEAEAFRYALELLAEKFPEQKEYLLDLAEEIESCIRSLSGVDVEDVRKFLDKEWAWVKELLAEHPAELAEVEAARAARLAELRAEVEAKVAA	0.956
